Reference: the RNAGym collection of RNA variant scans (doi:10.1073/pnas.2313332121)

B1: TPR t1 (parent)
chain: GACCAAUCUGCCCUCAGAGCUCGAGAACAUCUUCGGAUGCAGAGGAGGCAGGCUUCGGUGGCGCGAUAGCGCCAACGUCCUCAACCUCCAAUGCAUCCCACCACAUGAUGAUGCCUGAAGAGCCUUGGUUUUUUG

Variants of: B1
Experiment: polymerase ribozyme fitness, log enrichment relative to wild type (log ratio); higher = more active; in vitro selection for triplet polymerase activity
In short: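 In triplicate, a single round of in vitro selection was run on each mutant library, PCR-built and transcribed, covering one subunit of a heterodimeric triplet polymerase ribozyme. Frozen incubation at −7 °C followed annealing with a biotinylated primer, partner subunit and triplets, and extended constructs were then gel-excised, streptavidin-captured and taken through RT-PCR. Fitness is the logarithm of genotype enrichment over wild-type enrichment, from inverse-variance-weighted replicate averages of Illumina-sequenced inputs and outputs. […] only genotypes with ≥10 input reads and ≥1 read per output were kept.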

| Variant | polymerase ribozyme fitness (log ratio) |
| --- | --- |
| A43G G60A C79U G93A | -2.95 |
| G51A A95G | -2.62 |
| C70G C124U U130C | -0.523 |
| G71C C114U G122A U129A | -4.82 |
| C3G G48C U87G U130C | -1.16 |
| C115U C124G | 0.35 |
| G52C G60U | -1.44 |
| C73A C101G A119U | -1.93 |
| C82U A90U C97U A118G | -2.4 |
| C64U A118U | 0.459 |
| G42U C56G C123U | -0.406 |
| G47C G58A A121G G135U | 0.038 |
| A46U C64G C123G C124A | -5.93 |
| C3A C53G | -1.72 |
| G48C C79G | -4.27 |
| C8G C13A A16U | 0.292 |
| G47U A95U | -1.91 |
| C3U G77A C94G | -1.2 |
| C56U C94A A105G | -3.08 |
| C8A A26G C56G C115U | -1.74 |
| C34U C85A A111U | -5.33 |

| Variant | polymerase ribozyme fitness (log ratio) |
| --- | --- |
| C40U U130G | -0.974 |
| C99A U132C | -4.94 |
| C4U A18C C53A C88G | -3.41 |
| G44C A46C U54A C88G C97U G113C | -3.49 |
| G39A C49A G122A C123G | 0.869 |
| C15U G120U | -0.697 |
| G52A G71A U96G | -1.57 |
| C49G G63U U130G | -2.28 |
| A37C G44A A46C G47U U59C | -6.19 |
| C12U G25U | -6.45 |
| G48U C56A | -1.75 |
| C13G G113A A118C | -4.34 |
| G44U G61A C99U | -4.01 |
| U7A C11A U81A | -1.32 |
| C12U U21A A29G G63A | -2.72 |
| C34A A84U | -2.81 |
| C8G C20U A46U G52C | -3.42 |
| G45U U92A | -3.79 |
| C13U U59C A83U U96G | -1.05 |
| G42U G77U | -1.86 |
| G17A U116C | -3.7 |

| Variant | polymerase ribozyme fitness (log ratio) |
| --- | --- |
| G17U A46U C53G G63C A83C C85G C89U A121C C123U U126A | -6.58 |
| A27U G47A U125G | -2.83 |
| C28U C82A C94A U125G | -4.37 |
| G63U G110A | -1.81 |
| A50U A95C | -1.9 |
| A37C C123G | 0.773 |
| G42C C49A G69U A90U U109G G128U | -6.14 |
| U55A G63C C72U G77C C104A | -5.29 |
| G39A G71U A84U | -0.797 |
| C12G C53A C73G G107C U112C | -3.66 |
| A5C G60C | -0.361 |
| G45U C72A U81C A84C C104U G110U U131C | -4.32 |
| C22A C31G G71U U92C G93A C114U | -6.77 |
| C49G C76U U87C | -1.3 |
| G45U C98A | -6.01 |
| A18U A68G U81A C123U | -5.83 |
| A18C C53U A121U | -0.907 |
| A5G G52C C70G C82U | -3.85 |
| G48A G61A | -0.0923 |
| A50C C115U | -1.47 |
| C4U A18G | -3.62 |

| Variant | polymerase ribozyme fitness (log ratio) |
| --- | --- |
| A50C G61U C79G U129C | -2.24 |
| G42C G127A | -2.97 |
| G47U C49U C62U | -4.79 |
| C72U A111U | -2.46 |
| C3A C13G C89U G128C | -3.62 |
| C4G U9C U112C G117A | -1.01 |
| A68G G122A | -2.55 |
| C11A U33G G69U U106A | -2.62 |
| A24G G42U G45A C72G C88A A121G U125C | -2.21 |
| A16G G52A U116C | 0.826 |
| A50U G52C G58C C72U C88U | -4.47 |
| C8G U38C G42A C56U C124A | -1.34 |
| C34U G71A | -5.88 |
| C56A G69C C79U G113U G117A | -5.4 |
| G47A U59G A91U G113A | -2.02 |
| A43U G63U U134G | -3.02 |
| C64G C102U C124U | -6.08 |
| C15U G113U | -3.92 |
| C34G G69U C123A | -2.45 |
| C40G G51A C56A C72A A121U | -3.83 |
| G47U A118G U130G | -3.01 |
